Measurements as given in patent US10077319B2, “Anti-PCSK9-GLP-1 fusions and methods for use” (MedImmune, LLC, priority 2014, dated 2018).

Biological target: human GLP-1 receptor (Homo sapiens, UniProt P43220)
Test: cAMP production assay in CHO cells expressing human GLP-1 receptor
Format: cell-based
Conditions: Table 18; for % Max Effect: maximum activation compared to GLP-1
Procedure: Low protein binding 384-well plates (Greiner) were used to perform eleven 1 in 4 serial dilutions of test compound that were made in assay medium (0.1% bovine serum albumin in Hanks Balanced Salt Solution (GIBCO or Sigma), containing 0.5 mM IBMX (Sigma)). All sample dilutions were made in duplicate. […] Cells were then re-suspended in assay buffer at the optimized concentration of 1×10^5 cells/mL and dispensed at 5 uL per well to black shallow-well u-bottom 384-well plates (Corning). 5 μL of test compound was transferred from the dilution plate to the cell plate and incubated at room temperature for 30 minutes. cAMP levels were measured the cAMP dynamic 2 HTRF kit (Cisbio), following the two step protocol as per manufacturer's recommendations. Briefly, anti-cAMP cryptate (donor fluorophore) and cAMP-d2 (acceptor fluorophore) were made up separately by diluting each 1/20 in conjugate & lysis buffer provided in the kit. 5 uL of anti-cAMP cryptate was added to all wells of the assay plate and 5 uL of cAMP-d2 added to all wells except non-specific binding wells, to which only conjugate and lysis buffer was added. […] Data was transformed to % Delta F as described in manufacturer's guidelines and analyzed by unconstrained 4-parameter logistic fit of data, curve mid-point to determine EC50.

human GLP-1 receptor, sequence (P43220 24-463): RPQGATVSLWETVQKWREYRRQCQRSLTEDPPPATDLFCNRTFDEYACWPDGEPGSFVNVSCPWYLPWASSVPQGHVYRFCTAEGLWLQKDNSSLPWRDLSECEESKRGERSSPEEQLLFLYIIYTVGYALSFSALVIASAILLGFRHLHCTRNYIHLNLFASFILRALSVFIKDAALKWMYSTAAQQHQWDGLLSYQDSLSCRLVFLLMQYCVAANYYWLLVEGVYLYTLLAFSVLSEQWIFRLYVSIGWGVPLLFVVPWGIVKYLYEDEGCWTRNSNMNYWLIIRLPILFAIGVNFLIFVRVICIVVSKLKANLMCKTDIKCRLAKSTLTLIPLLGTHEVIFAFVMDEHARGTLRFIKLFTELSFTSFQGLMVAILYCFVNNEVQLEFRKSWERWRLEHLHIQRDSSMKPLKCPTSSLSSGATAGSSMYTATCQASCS

B1: HS9_DSB7_L26G: HS9_DSB7 with peptide point mutation L26G; SEQ ID NO: 469 (protein)
chain: HGEGTFTSDLSKQMEEECVRLFIEWGKNGGPSSGAPPPGCGGGGGSGGGGSGGGGSADIQMTQSPSSLSASVGDRVTITCQASQDVKTAVAWYQQKPGKAPKLLIYSASYRYTGVPSRFSGSGSGTDFTFTISSLQPEDIATYYCQQRYSLWRTFGQGTKLEIK
% Max Effect: 81%

B2: HS9_DSB7_L26D: HS9_DSB7 with peptide point mutation L26D; SEQ ID NO: 471 (protein)
chain: HGEGTFTSDLSKQMEEECVRLFIEWDKNGGPSSGAPPPGCGGGGGSGGGGSGGGGSADIQMTQSPSSLSASVGDRVTITCQASQDVKTAVAWYQQKPGKAPKLLIYSASYRYTGVPSRFSGSGSGTDFTFTISSLQPEDIATYYCQQRYSLWRTFGQGTKLEIK
Potency at huGLP-1R in cAMP assay (M): Inactive | % Max Effect: Inactive

B3: HS9_DSB7_L26E: HS9_DSB7 with peptide point mutation L26E; SEQ ID NO: 470 (protein)
chain: HGEGTFTSDLSKQMEEECVRLFIEWEKNGGPSSGAPPPGCGGGGGSGGGGSGGGGSADIQMTQSPSSLSASVGDRVTITCQASQDVKTAVAWYQQKPGKAPKLLIYSASYRYTGVPSRFSGSGSGTDFTFTISSLQPEDIATYYCQQRYSLWRTFGQGTKLEIK
Potency at huGLP-1R in cAMP assay (M): Inactive | % Max Effect: Inactive
